# Laboratory results: patent US6361968 (US Dept. of Health and Human Services, dated 1997)
# T1: VBP-C/EBP chimeric protein (VBP: chicken; C/EBP: rat liver)
# T1 chain: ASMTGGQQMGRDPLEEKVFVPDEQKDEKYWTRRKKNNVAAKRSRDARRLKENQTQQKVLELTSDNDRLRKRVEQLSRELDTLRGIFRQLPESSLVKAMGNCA
# T2: GBF-C/EBP chimeric protein (GBF: Arabidopsis thaliana; C/EBP: rat …)
# T2 chain: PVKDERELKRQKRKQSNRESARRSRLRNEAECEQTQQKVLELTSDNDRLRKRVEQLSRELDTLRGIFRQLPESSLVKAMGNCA
# T3: C/EBP bZIP domain (GCN4-C/EBP chimeric protein) (C/EBP: rat liver; GCN4: yeast)
# T3 construct: Made in E. coli; forms a homodimer; also called C/EBP-C/EBP; wild type C/EBP
# T3 chain: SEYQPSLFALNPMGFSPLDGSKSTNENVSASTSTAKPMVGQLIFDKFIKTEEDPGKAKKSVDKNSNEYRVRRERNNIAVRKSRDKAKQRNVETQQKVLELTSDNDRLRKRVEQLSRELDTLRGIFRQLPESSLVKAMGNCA
# T4: bZIP VBP protein (chicken, UniProt Q92172 235-319, limits assumed)
# T4 sequence (looked up): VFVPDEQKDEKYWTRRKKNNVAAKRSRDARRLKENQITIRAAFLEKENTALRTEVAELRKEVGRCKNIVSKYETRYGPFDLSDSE
# B1: 3heptad-F (designed binder)
# chain: ASMTGGQQMGRDPGGGLARENEELEKEAEELEQENAELEQEVLELESRNDRLRKEVEQLERELDTLRGIFRQLPESSLVKAMGNCA
# notes: also called aZIP 3heptadF (CEBP specific)
# B2: 4heptadFos (c-Fos with the basic region replaced by four acidic heptad repeats) (designed binder)
# chain: MASMTGGQQMGRDPDLEQRAEELARENEELEKEAEELEQENAELEAETDQLEDEKSALQTEIANLLKEKEKLEFILAAHRPACKIP
# notes: how the two entries divide the protein is not explained; also called aZIP 4heptadFos; aFos
# B3: c-Myc bHLH protein (other)
# chain: NDKRRTHNVLERQRRNELKRSFFALRDQIPELENNEKAPKVVILKKATAYILSIQADEHKLTSEKDLLRKRREQLKHKLEQLRNSGA
# What was measured:
# [1] = molecular target: T1, VBP-C/EBP chimeric protein; test: CD thermal melt, equimolar mixture, 150 mM KCl, Kd at 25 C
# Experimental: (§1) Table 1 presents the melting temperature (T_m,° C.), $\Delta G$ and k_d at 25° C. for CD thermal melts of a variety of proteins either as homodimers or an equimolar mixture of two proteins. […] The (L) denotes 'low' salt conditions (50 mM KCl, 25 mM Tris pH 8.0, 0.5 mM EDTA, 1 mM DTT) and the (H) denotes regular salt conditions (12.5 mM potassium phosphate, pH 7.4, 150 mM KCl, 0.25 mM EDTA, and 0.5 mM DTT). The latter conditions were used in Table 2. "0heptad-F" represents the F zipper with the basic region deleted. The RMS error in $\Delta G$ is 0.2 kcal/mol and 0.5 kcal/mol for homo- and heterodimers respectively.
# (§2) The two chimeras were mixed with the four different length acidic extensions appended to the F zipper and their stability was determined from CD thermal melts.
# [2] = molecular target: T2, GBF-C/EBP chimeric protein; test: as above
# Experimental: as §1, §2
# [3] = molecular target: T3, C/EBP bZIP domain (GCN4-C/EBP chimeric …); test: as above
# Experimental: as §1, §2
# bZIP VBP protein = molecular target: T4, bZIP VBP protein; test: thermal melt of the mixture equals the sum of the two homodimer curves (FIG. 5B)
# [4] = molecular target: the molecule itself; test: CD thermal melt, homodimer, 150 mM KCl
# Experimental: (§3) CD analyses were performed as described in Materials and Methods of D. Krylov et al., 1994, *EMBO J.,* 13:2849–2861. T_m values were calculated as described in D, Krylov et al., 1994, Ibid, converted to K_{d(25)} and $\Delta G(25)$ using a $\Delta C_p$ of –0.96 kcal/mol° C.^-1 calculated from a T_m versus $\Delta H$ plot for all of the proteins as described herein. All thermal melts were reversible.
# as §1
# [5] = molecular target: T1, VBP-C/EBP chimeric protein; test: CD thermal melt, equimolar mixture, 150 mM KCl
# Experimental: as §1, §2
# [6] = molecular target: T2, GBF-C/EBP chimeric protein; test: CD thermal melt, equimolar mixture, 150 mM KCl
# Experimental: as §1, §2
# [7] = molecular target: T3, C/EBP bZIP domain (GCN4-C/EBP chimeric …); test: CD thermal melt, equimolar mixture, 150 mM KCl
# Experimental: as §1, §2
# [8] = molecular target: the molecule itself; test: CD thermal melt, homodimer, 150 mM KCl, Kd at 25 C
# Experimental: as §3, §1
# [9] = molecular target: T3, C/EBP bZIP domain (GCN4-C/EBP chimeric …); test: thermal melt of the mixture equals the sum of the two homodimer curves (FIG. 5A)
# c-Jun (unmodified) [10] = molecular target: T5, c-Jun (unmodified) (UniProt P05412 241-331, limits assumed); test: from thermal melts of FIG. 4, Kd at 37 C
# T5 sequence (P05412 241-331 limits assumed): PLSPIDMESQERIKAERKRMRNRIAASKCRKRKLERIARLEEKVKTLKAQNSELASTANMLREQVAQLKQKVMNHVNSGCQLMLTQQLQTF
# c-Jun (unmodified) [11] = molecular target: T5, c-Jun (unmodified); test: thermal melt of the mixture (FIG. 4)
# [12] = molecular target: T6, 0heptadMax (dimerization domain of Max without an acidic extension) (UniProt P61244 44-113, limits assumed); test: heterodimer with c-Myc, dimerization study of FIG. 9
# T6 construct: domain: dimerization domain; also called OheptadMax
# T6 sequence (P61244 other isoform, or with tags, fused parts or gaps limits assumed): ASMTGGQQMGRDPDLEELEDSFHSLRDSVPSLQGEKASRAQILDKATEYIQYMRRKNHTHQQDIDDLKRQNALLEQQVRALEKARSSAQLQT
binder,measurement,setting,value
B1,Kd,[1],0.02 nM
same,Kd,[2],0.04 nM
same,Kd,[3],0.04 nM
same,binding result,bZIP VBP protein,no binding
same,deltaG at 25 C,[4],-7.9 kcal/mol
same,Tm,[5],64.2 °C
same,deltaG at 25 C,[5],-14.7 kcal/mol
same,Tm,[6],64 °C
same,deltaG at 25 C,[6],-14.2 kcal/mol
same,Tm,[7],63.8 °C
same,deltaG at 25 C,[7],-14.3 kcal/mol
same,Kd,[8],2000 nM
B2,binding result,[9],no binding
same,Kd,c-Jun (unmodified) [10],6 nM
same,Tm,c-Jun (unmodified) [11],61 °C
B3,Kd,[12],0.6 nM
